Residue numbers refer to the chain shown, from its start. Numbered stars: 1 amine (or outer) side, 2 acyl side, 3 side chain; on linkers, the order of the positions; unused ones are H or OH. Square brackets hold non-standard residues; d marks the D form. Side chains are listed from the residue outwards. Ends that are not written are not given here. * marks the point of attachment. C20 diacid = O=C(O)CCCCCCCCCCCCCCCCCCC(=O)*; γGlu = O=C(O)[C@H](CCC(=O)[*:2])N[*:1]; AEEA = NCCOCCOCC(=O)O; Aib = CC(C)(N)C(=O)O
T1: human GIP receptor (human, UniProt P48546 22-466)
T1 sequence (looked up): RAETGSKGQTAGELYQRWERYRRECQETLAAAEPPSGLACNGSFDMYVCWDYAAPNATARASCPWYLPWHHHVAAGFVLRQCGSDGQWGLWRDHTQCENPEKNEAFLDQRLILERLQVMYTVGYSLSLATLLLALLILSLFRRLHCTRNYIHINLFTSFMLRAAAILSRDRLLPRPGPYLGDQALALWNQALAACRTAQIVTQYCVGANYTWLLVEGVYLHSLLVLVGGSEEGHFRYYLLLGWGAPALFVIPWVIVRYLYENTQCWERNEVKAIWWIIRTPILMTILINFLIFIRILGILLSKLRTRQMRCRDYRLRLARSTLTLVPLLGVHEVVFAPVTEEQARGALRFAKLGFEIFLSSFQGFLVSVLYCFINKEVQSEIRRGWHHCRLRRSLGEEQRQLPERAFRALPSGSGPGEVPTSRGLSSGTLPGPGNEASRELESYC

B1: Example 78 (peptide)
peptide: XXEGTFTSDYSILLDKKAQXAFIEYLIEGGPSSGAPPPS
modifications: D-Tyr1; Aib2; K17((2-[2-(2-Amino-ethoxy)-ethoxy]-acetyl)2-(γ-Glu)-CO-(CH2)18-CO2H); Aib20; C-terminal NH2
B2: Example 81 (peptide)
peptide: B1 peptide with X1Y, S11X
modifications: Aib2; D-Ser11; K17((2-[2-(2-Amino-ethoxy)-ethoxy]-acetyl)2-(γ-Glu)-CO-(CH2)18-CO2H); Aib20; C-terminal NH2
B3: Example 83 (peptide)
peptide: B1 peptide with X1Y, E28X
modifications: Aib2; K17((2-[2-(2-Amino-ethoxy)-ethoxy]-acetyl)2-(γ-Glu)-CO-(CH2)18-CO2H); Aib20; D-Glu28; C-terminal NH2
B4: Example 79 (peptide)
peptide: B1 peptide with X2A
modifications: N-terminal Ac; D-Tyr1; K17((2-[2-(2-Amino-ethoxy)-ethoxy]-acetyl)2-(γ-Glu)-CO-(CH2)18-CO2H); Aib20; C-terminal NH2
B5: Example 84 (peptide)
peptide: B1 peptide with X1Y, E24X
modifications: Aib2; K17((2-[2-(2-Amino-ethoxy)-ethoxy]-acetyl)2-(γ-Glu)-CO-(CH2)18-CO2H); Aib20; D-Glu24; C-terminal NH2
B6: Example 82 (peptide)
peptide: B1 peptide with X1Y, I12X
modifications: Aib2; D-Ile12; K17((2-[2-(2-Amino-ethoxy)-ethoxy]-acetyl)2-(γ-Glu)-CO-(CH2)18-CO2H); Aib20; C-terminal NH2
B7: Example 4 (peptide)
peptide: YXEGTXTSDXSIXLDXKAQXEFIXXLIEGGPSSGAPPPS
modifications: Aib2; αMeF(2F)6; 4Pal10; αMeL13; Orn16; K17((2-[2-(2-Amino-ethoxy)-ethoxy]-acetyl)2-(γ-Glu)-CO-(CH2)16-CO2H); Aib20; D-Glu24; αMeY25; C-terminal NH2
B8: Example 77 (peptide)
peptide: Y[Aib]EGTFTSDYSILLKIAQ[Aib]AFIEYLIEGGPSSGAPPK([AEEA-AEEA-γGlu-C20 diacid])S-NH2
modifications: N-terminus assumed
SMILES: CC[C@H](C)[C@H](NC(=O)[C@H](CCCCN)NC(=O)[C@H](CC(C)C)NC(=O)[C@H](CC(C)C)NC(=O)[C@@H](NC(=O)[C@H](CO)NC(=O)[C@H](Cc1ccc(O)cc1)NC(=O)[C@H](CC(=O)O)NC(=O)[C@H](CO)NC(=O)[C@@H](NC(=O)[C@H](Cc1ccccc1)NC(=O)[C@@H](NC(=O)CNC(=O)[C@H](CCC(=O)O)NC(=O)C(C)(C)NC(=O)[C@@H](N)Cc1ccc(O)cc1)[C@@H](C)O)[C@@H](C)O)[C@@H](C)CC)C(=O)N[C@@H](C)C(=O)N[C@@H](CCC(N)=O)C(=O)NC(C)(C)C(=O)N[C@@H](C)C(=O)N[C@@H](Cc1ccccc1)C(=O)N[C@H](C(=O)N[C@@H](CCC(=O)O)C(=O)N[C@@H](Cc1ccc(O)cc1)C(=O)N[C@@H](CC(C)C)C(=O)N[C@H](C(=O)N[C@@H](CCC(=O)O)C(=O)NCC(=O)NCC(=O)N1CCC[C@H]1C(=O)N[C@@H](CO)C(=O)N[C@@H](CO)C(=O)NCC(=O)N[C@@H](C)C(=O)N1CCC[C@H]1C(=O)N1CCC[C@H]1C(=O)N[C@@H](CCCCNC(=O)COCCOCCNC(=O)COCCOCCNC(=O)CC[C@H](NC(=O)CCCCCCCCCCCCCCCCCCC(=O)O)C(=O)O)C(=O)N[C@@H](CO)C(N)=O)[C@@H](C)CC)[C@@H](C)CC
B9: Example 85 (peptide)
peptide: Y[Aib]EGTFTSDASILLDKK([AEEA-AEEA-γGlu-C20 diacid])AQ[Aib]AFIEYLIEGGPSSGAPPPS-NH2
modifications: N-terminus assumed
SMILES: CC[C@H](C)[C@H](NC(=O)[C@H](CC(C)C)NC(=O)[C@H](Cc1ccc(O)cc1)NC(=O)[C@H](CCC(=O)O)NC(=O)[C@@H](NC(=O)[C@H](Cc1ccccc1)NC(=O)[C@H](C)NC(=O)C(C)(C)NC(=O)[C@H](CCC(N)=O)NC(=O)[C@H](C)NC(=O)[C@H](CCCCNC(=O)COCCOCCNC(=O)COCCOCCNC(=O)CC[C@H](NC(=O)CCCCCCCCCCCCCCCCCCC(=O)O)C(=O)O)NC(=O)[C@H](CCCCN)NC(=O)[C@H](CC(=O)O)NC(=O)[C@H](CC(C)C)NC(=O)[C@H](CC(C)C)NC(=O)[C@@H](NC(=O)[C@H](CO)NC(=O)[C@H](C)NC(=O)[C@H](CC(=O)O)NC(=O)[C@H](CO)NC(=O)[C@@H](NC(=O)[C@H](Cc1ccccc1)NC(=O)[C@@H](NC(=O)CNC(=O)[C@H](CCC(=O)O)NC(=O)C(C)(C)NC(=O)[C@@H](N)Cc1ccc(O)cc1)[C@@H](C)O)[C@@H](C)O)[C@@H](C)CC)[C@@H](C)CC)C(=O)N[C@@H](CCC(=O)O)C(=O)NCC(=O)NCC(=O)N1CCC[C@H]1C(=O)N[C@@H](CO)C(=O)N[C@@H](CO)C(=O)NCC(=O)N[C@@H](C)C(=O)N1CCC[C@H]1C(=O)N1CCC[C@H]1C(=O)N1CCC[C@H]1C(=O)N[C@@H](CO)C(N)=O
B10: Example 86 (peptide)
peptide: Y[Aib]EGTFTSDYSILLDKK([AEEA-AEEA-γGlu-C20 diacid])AQ[Aib]AFIEYLIEAGPSSGAPPPS-NH2
modifications: N-terminus assumed
SMILES: CC[C@H](C)[C@H](NC(=O)[C@H](CC(C)C)NC(=O)[C@H](Cc1ccc(O)cc1)NC(=O)[C@H](CCC(=O)O)NC(=O)[C@@H](NC(=O)[C@H](Cc1ccccc1)NC(=O)[C@H](C)NC(=O)C(C)(C)NC(=O)[C@H](CCC(N)=O)NC(=O)[C@H](C)NC(=O)[C@H](CCCCNC(=O)COCCOCCNC(=O)COCCOCCNC(=O)CC[C@H](NC(=O)CCCCCCCCCCCCCCCCCCC(=O)O)C(=O)O)NC(=O)[C@H](CCCCN)NC(=O)[C@H](CC(=O)O)NC(=O)[C@H](CC(C)C)NC(=O)[C@H](CC(C)C)NC(=O)[C@@H](NC(=O)[C@H](CO)NC(=O)[C@H](Cc1ccc(O)cc1)NC(=O)[C@H](CC(=O)O)NC(=O)[C@H](CO)NC(=O)[C@@H](NC(=O)[C@H](Cc1ccccc1)NC(=O)[C@@H](NC(=O)CNC(=O)[C@H](CCC(=O)O)NC(=O)C(C)(C)NC(=O)[C@@H](N)Cc1ccc(O)cc1)[C@@H](C)O)[C@@H](C)O)[C@@H](C)CC)[C@@H](C)CC)C(=O)N[C@@H](CCC(=O)O)C(=O)N[C@@H](C)C(=O)NCC(=O)N1CCC[C@H]1C(=O)N[C@@H](CO)C(=O)N[C@@H](CO)C(=O)NCC(=O)N[C@@H](C)C(=O)N1CCC[C@H]1C(=O)N1CCC[C@H]1C(=O)N1CCC[C@H]1C(=O)N[C@@H](CO)C(N)=O

The binders below were run against human GLP-1 receptor (human, UniProt P43220 24-463) (assay: cell-based or functional assay).

Binder	hGLP1R cAMP EC50 ratio	hGLP1R cAMP Rel EC50
B1	0.143	0.544 nM
B2	0.063	1.29 nM
B3	0.166	0.387 nM
B4	0.041	2.02 nM
B5	0.173	0.374 nM
B6	0.00325	26.1 nM
B7	1.41	0.0297 nM
B8	< 3.25e-05	> 2000 nM
B9	1.13	0.0518 nM
B10	0.243	0.271 nM

What follows are binders tested against T1, human GIP receptor (assay: cell-based or functional assay).

Binder	hGIPR cAMP EC50 ratio	hGIPR cAMP Rel EC50
B1	0.293	0.532 nM
B2	0.373	0.428 nM
B3	0.804	0.182 nM
B4	2.11	0.0732 nM
B5	1.59	0.0915 nM
B6	0.00679	24.3 nM
B7	5.95	0.0272 nM
B8	0.00102	135 nM
B9	0.111	1.67 nM
B10	3.29	0.0452 nM

Source: patent US20220048967A1 (published 2022)
